Reference: article PMC3406928 (Hypertension, 2012)

Target: T1, angiotensin type 2 receptor (human (endogenous in RPTCs), UniProt P50052 1-363)
T1 sequence (looked up): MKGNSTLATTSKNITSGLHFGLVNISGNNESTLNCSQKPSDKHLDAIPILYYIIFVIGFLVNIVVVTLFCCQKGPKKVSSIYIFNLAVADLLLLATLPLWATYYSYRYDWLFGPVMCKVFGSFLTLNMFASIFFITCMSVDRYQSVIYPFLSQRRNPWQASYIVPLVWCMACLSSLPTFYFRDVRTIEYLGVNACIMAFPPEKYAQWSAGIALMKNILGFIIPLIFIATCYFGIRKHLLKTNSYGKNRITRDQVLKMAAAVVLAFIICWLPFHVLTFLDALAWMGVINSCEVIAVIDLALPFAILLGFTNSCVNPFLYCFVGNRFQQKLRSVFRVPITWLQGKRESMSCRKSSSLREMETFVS
Experiment: FRET or BRET

B1: dopamine D1 receptor (receptor, human (endogenous in nRPTCs), UniProt P21728 1-446, looked up)
chain: MRTLNTSAMDGTGLVVERDFSVRILTACFLSLLILSTLLGNTLVCAAVIRFRHLRSKVTNFFVISLAVSDLLVAVLVMPWKAVAEIAGFWPFGSFCNIWVAFDIMCSTASILNLCVISVDRYWAISSPFRYERKMTPKAAFILISVAWTLSVLISFIPVQLSWHKAKPTSPSDGNATSLAETIDNCDSSLSRTYAISSSVISFYIPVAIMIVTYTRIYRIAQKQIRRIAALERAAVHAKNCQTTTGNGKPVECSQPESSFKMSFKRETKVLKTLSVIMGVFVCCWLPFFILNCILPFCGSGETQPFCIDSNTFDVFVWFGWANSSLNPIIYAFNADFRKAFSTLLGCYRLCPATNNAIETVSINNNGAAMFSSHHEPRGSISKECNLVYLIPHAVGSSEDLKKEEAAGIARPLEKLSPALSVILDYDTDVSLEKIQPITQNGQHPT
In the case of B1, the “fold increase of corrected FRET after FEN stimulation vs. control” value is reported as 1.96 fold.
